This note sets out measurements from US20030148958A1 (PROCTER AND GAMBLE, published 2003).

Where a chain is given by its changes, count along the chain named. Ends that are not written are not given here. Some results are limits rather than exact numbers.

Test [1] deals with corticotropin releasing factor 1 receptor. The experiment in a line: cell-based or functional assay.
For test [2], the target named is T1, corticotropin releasing factor 2 receptor.
T1 sequence (Q13324 whole entry, species assumed, looked up): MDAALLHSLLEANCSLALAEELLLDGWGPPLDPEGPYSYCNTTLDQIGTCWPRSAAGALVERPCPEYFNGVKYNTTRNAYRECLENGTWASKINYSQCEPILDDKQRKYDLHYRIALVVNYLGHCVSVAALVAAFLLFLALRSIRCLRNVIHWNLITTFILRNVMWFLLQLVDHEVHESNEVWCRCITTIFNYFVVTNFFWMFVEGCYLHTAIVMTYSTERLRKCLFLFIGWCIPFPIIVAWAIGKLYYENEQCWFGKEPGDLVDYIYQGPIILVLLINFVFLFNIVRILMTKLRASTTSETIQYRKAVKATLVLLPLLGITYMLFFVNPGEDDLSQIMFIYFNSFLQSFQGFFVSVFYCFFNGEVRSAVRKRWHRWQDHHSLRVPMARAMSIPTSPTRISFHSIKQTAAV
Put plainly: cell-based or functional assay.
Throughout, for CRF1R Emax: reference of the scale not given here.
Throughout, for CRF2R Emax: reference of the scale not given here.

B1: SEQ ID NO 138 (peptide)
peptide: IVLSLDVPIGLLQILLEQAAREQATTNARILARV-NH2
Consider B1, for which, in test [1], the “CRF1R EC50” value was more than 100 nM and the “CRF1R Emax” value was 5%. Besides, in test [2], the “CRF2R EC50” value is 59 nM and the “CRF2R Emax” value turned out to be 46%.

B2: SEQ ID NO 164 (peptide)
peptide: IVLSLDVPIGLLQILLEMARAEQLAQQAHSNRKLMEII-NH2
In the case of B2, in test [1], the “CRF1R EC50” value is more than 100 nM and the “CRF1R Emax” value came out at 26%. In addition, in test [2], the “CRF2R EC50” value amounted to 2.24 nM and the “CRF2R Emax” value turned out to be 92%.

B3: SEQ ID NO 153 (peptide)
peptide: ZGIVLSLDVPIGLLRKMIEIEKQEKEKQQAANNRLLLDTI
modifications: C-terminal amide
Regarding B3, in test [1], the “CRF1R EC50” value was more than 100 nM and the “CRF1R Emax” value was found to be 7%. In test [2], the “CRF2R EC50” value amounted to 9.28 nM and the “CRF2R Emax” value came to 97%.

B4: SEQ ID NO 159 (peptide)
peptide: IVLSLDVPIGLLQILLEQTKADQLAQQAHSNRKLLDIA-NH2
With B4, in test [1], the “CRF1R EC50” value was more than 100 nM and the “CRF1R Emax” value worked out at 9%. In addition, in test [2], the “CRF2R EC50” value is 90.8 nM and the “CRF2R Emax” value was 62%.

B5: SEQ ID NO 152 (peptide)
peptide: SQEIVLSLDVPIGLLREVLEMTKADQLAQQAHSNRKLLDIA-NH2
Take B5: in test [1], the “CRF1R EC50” value is more than 100 nM and the “CRF1R Emax” value came out at 4%. Besides, in test [2], the “CRF2R EC50” value is more than 100 nM and the “CRF2R Emax” value was found to be 19%.

B6: SEQ ID NO 14 (peptide)
peptide: ZGPPISIDLPFQLLRKMIEIEKQEKEKQQATNNRLLLDTI
modifications: C-terminal amide
For the molecule B6, in test [1], the “CRF1R EC50” value amounted to 109 nM and the “CRF1R Emax” value came to 92%. Also, in test [2], the “CRF2R EC50” value was 6.33 nM and the “CRF2R Emax” value stood at 90%.

B7: SEQ ID NO 15 (peptide)
peptide: B6 peptide with T31A, N32A, I40V
modifications: C-terminal amide
Turning to B7, in test [1], the “CRF1R EC50” value was found to be 85.3 nM and the “CRF1R Emax” value is 86%. In test [2], the “CRF2R EC50” value was found to be 6.56 nM and the “CRF2R Emax” value worked out at 97%.

B8: SEQ ID NO 16 (peptide)
peptide: B6 peptide with N32T, I40V
modifications: C-terminal amide
Take B8: in test [1], the “CRF1R EC50” value amounted to 136 nM and the “CRF1R Emax” value amounted to 98%. Further, in test [2], the “CRF2R EC50” value came to 7.88 nM and the “CRF2R Emax” value was 86%.

B9: SEQ ID NO 137 (peptide)
peptide: IVLSLDVPIGLLQILLEQRARAAREQATTNARILARV-NH2
With B9, in test [1], the “CRF1R EC50” value is more than 100 nM and the “CRF1R Emax” value came to 4%. In addition, in test [2], the “CRF2R EC50” value turned out to be 36.9 nM and the “CRF2R Emax” value was found to be 100%.

B10: SEQ ID NO 161 (peptide)
peptide: SEEPPISLDLTFHLLREVLEMARAEQLAQQAHTNARILARV-NH2
For the molecule B10, in test [1], the “CRF1R EC50” value is more than 100 nM and the “CRF1R Emax” value amounted to 77%. Further, in test [2], the “CRF2R EC50” value is more than 100 nM and the “CRF2R Emax” value came to 88%.

B11: SEQ ID NO 158 (peptide)
peptide: IVLSLDVPIGLLQILLEIEKQEKEKQQAANNRLLLDTI-NH2
Turning to B11, in test [1], the “CRF1R EC50” value was more than 100 nM and the “CRF1R Emax” value amounted to 15%. In test [2], the “CRF2R EC50” value was determined as 6.37 nM and the “CRF2R Emax” value was 89%.

B12: SEQ ID NO 162 (peptide)
peptide: SEEPPISLDVPIGLLQEVLEMARAEQLAQQAHSNRKLMEII-NH2
Consider B12, for which, in test [1], the “CRF1R EC50” value is more than 100 nM and the “CRF1R Emax” value came out at 11%. Besides, in test [2], the “CRF2R EC50” value is more than 100 nM and the “CRF2R Emax” value came to 7%.

B13: SEQ ID NO 155 (peptide)
peptide: IVLSLDVPIGLLQILLEMTKADQLAQQAHSNRKLLDIA-NH2
B13: in test [1], the “CRF1R EC50” value came out at 40.6 nM and the “CRF1R Emax” value is 16%. Further, in test [2], the “CRF2R EC50” value amounted to 20.6 nM and the “CRF2R Emax” value stood at 94%.

B14: SEQ ID NO 154 (peptide)
peptide: IVLSLDVPIGLLQILIEIEKQEKEKQQAANNRLLLDTI-NH2
For the molecule B14, in test [1], the “CRF1R EC50” value is more than 100 nM and the “CRF1R Emax” value was 7%. Also, in test [2], the “CRF2R EC50” value was 10.3 nM and the “CRF2R Emax” value was 100%.

B15: SEQ ID NO 139 (peptide)
peptide: IVLSLDVPIGLLQILLEQAAAREQATTNARILARV-NH2
As to B15, in test [1], the “CRF1R EC50” value is more than 100 nM and the “CRF1R Emax” value came out at 4%. In test [2], the “CRF2R EC50” value came out at 42.6 nM and the “CRF2R Emax” value was determined as 60%.

B16: SEQ ID NO 165 (peptide)
peptide: IVLSLDVPIGLLQEVLEMARAEQLAQQAHSNRKLMEII-NH2
For B16, in test [1], the “CRF1R EC50” value was more than 100 nM and the “CRF1R Emax” value came out at 19%. For the same molecule, in test [2], the “CRF2R EC50” value was more than 100 nM and the “CRF2R Emax” value was 75%.

B17: SEQ ID NO 142 (peptide)
peptide: ZGPPISIDLSLELLRKMIEIEKQEKEKQQATTNARILARV
modifications: C-terminal amide
Consider B17, for which, in test [1], the “CRF1R EC50” value turned out to be 43.5 nM and the “CRF1R Emax” value was 85.3%. Moreover, in test [2], the “CRF2R EC50” value is 9.08 nM and the “CRF2R Emax” value amounted to 77%.

B18: SEQ ID NO 145 (peptide)
peptide: B17 peptide with S10P, E12H
modifications: C-terminal amide
As to B18, in test [1], the “CRF1R EC50” value was found to be 196 nM and the “CRF1R Emax” value was 91.3%. In test [2], the “CRF2R EC50” value is 7.8 nM and the “CRF2R Emax” value worked out at 69%.

B19: SEQ ID NO 147 (peptide)
peptide: B17 peptide with S10P, L11F, E12Y
modifications: C-terminal amide
As for B19, in test [1], the “CRF1R EC50” value amounted to 102 nM and the “CRF1R Emax” value was determined as 96%. For the same molecule, in test [2], the “CRF2R EC50” value was 6.75 nM and the “CRF2R Emax” value came to 94%.

B20: SEQ ID NO 148 (peptide)
peptide: B17 peptide with S10P, L11F, E12Q
modifications: C-terminal amide
B20: in test [1], the “CRF1R EC50” value is 295 nM and the “CRF1R Emax” value came to 100%. In test [2], the “CRF2R EC50” value worked out at 9.45 nM and the “CRF2R Emax” value is 51.5%.

B21: SEQ ID NO 150 (peptide)
peptide: B17 peptide with S10P, L11I, E12Q
modifications: C-terminal amide
B21: in test [1], the “CRF1R EC50” value was 1000 nM and the “CRF1R Emax” value is 5.7%. In test [2], the “CRF2R EC50” value amounted to 34.6 nM and the “CRF2R Emax” value turned out to be 70.5%.

B22: SEQ ID NO 151 (peptide)
peptide: B17 peptide with S10P, L11T, E12Y
modifications: C-terminal amide
For the molecule B22, in test [1], the “CRF1R EC50” value was found to be 1000 nM and the “CRF1R Emax” value worked out at 19.9%. In addition, in test [2], the “CRF2R EC50” value is 36.8 nM and the “CRF2R Emax” value stood at 96%.

B23: SEQ ID NO 144 (peptide)
peptide: B17 peptide with S10P, E12Q
modifications: C-terminal amide
Turning to B23, in test [1], the “CRF1R EC50” value worked out at 567 nM and the “CRF1R Emax” value was found to be 100%. Moreover, in test [2], the “CRF2R EC50” value is 9.16 nM and the “CRF2R Emax” value was 85.5%.

B24: SEQ ID NO 143 (peptide)
peptide: B17 peptide with S10P
modifications: C-terminal amide
B24: in test [1], the “CRF1R EC50” value was 232 nM and the “CRF1R Emax” value was 100%. In addition, in test [2], the “CRF2R EC50” value stood at 11.1 nM and the “CRF2R Emax” value stood at 85.5%.

B25: SEQ ID NO 146 (peptide)
peptide: B17 peptide with S10P, L11F, E12H
modifications: C-terminal amide
B25: in test [1], the “CRF1R EC50” value was 103 nM and the “CRF1R Emax” value was determined as 100%. Moreover, in test [2], the “CRF2R EC50” value was 8.2 nM and the “CRF2R Emax” value worked out at 84.5%.

B26: SEQ ID NO 149 (peptide)
peptide: B17 peptide with S10P, L11I, E12Y
modifications: C-terminal amide
For the molecule B26, in test [1], the “CRF1R EC50” value came to 1000 nM and the “CRF1R Emax” value was 40.7%. Besides, in test [2], the “CRF2R EC50” value was found to be 26.2 nM and the “CRF2R Emax” value turned out to be 95.5%.

B27: SEQ ID NO 141 (peptide)
peptide: IVLSLDVPIGLLQILLEQARAAAREQATTNARILARV-NH2
As to B27, in test [1], the “CRF1R EC50” value is more than 100 nM and the “CRF1R Emax” value was 7%. For the same molecule, in test [2], the “CRF2R EC50” value is more than 100 nM and the “CRF2R Emax” value was determined as 29%.

B28: SEQ ID NO 160 (peptide)
peptide: IVLSLDVPIGLLQTLLELARTQSQRERAEQNRIIFDSV-NH2
Take B28: in test [1], the “CRF1R EC50” value is more than 100 nM and the “CRF1R Emax” value came to 10%. Moreover, in test [2], the “CRF2R EC50” value was determined as 9.15 nM and the “CRF2R Emax” value worked out at 87%.

B29: SEQ ID NO 157 (peptide)
peptide: SQEPPISLDLTFHLLREVLEQARARAAREQATTNARILARV-NH2
For the molecule B29, in test [1], the “CRF1R EC50” value was 100 nM and the “CRF1R Emax” value was determined as 91%. For the same molecule, in test [2], the “CRF2R EC50” value came out at 42 nM and the “CRF2R Emax” value was 60.6%.

B30: SEQ ID NO 163 (peptide)
peptide: IVLSLDVPIGLLQILLEQARARAAREQATSNRKLMEII-NH2
As to B30, in test [1], the “CRF1R EC50” value was more than 100 nM and the “CRF1R Emax” value was 13%. In test [2], the “CRF2R EC50” value was 4.49 nM and the “CRF2R Emax” value worked out at 96%.

B31: SEQ ID NO 156 (peptide)
peptide: ZGPPISIDLSLELLRKMIEQARARAAREQATTNARILARV
modifications: C-terminal amide
On to B31, for which, in test [1], the “CRF1R EC50” value was more than 100 nM and the “CRF1R Emax” value was 6%. Further, in test [2], the “CRF2R EC50” value turned out to be 9.29 nM and the “CRF2R Emax” value amounted to 79%.
